Reference: publication PMC4961411
Values joined by “and” are separate entries in the source; they are usually repeats but may differ in a detail not shown here. Identical values can stand only once.

Columns and labels:
[1] = target: 6xHis-YlfA 128–425 (Legionella pneumophila); test: SDS-PAGE and immunoblot of gel filtration peak fractions, boiled
[2] = target: 6xHis-YlfA 128–425 (Legionella pneumophila); test: SDS-PAGE and immunoblot of gel filtration peak fractions, not boiled
[3] = target: 6xHis-YlfB 131–405 (Legionella pneumophila); test: SDS-PAGE and immunoblot of gel filtration peak fractions, boiled
[4] = target: 6xHis-YlfB 131–405 (Legionella pneumophila); test: SDS-PAGE and immunoblot of gel filtration peak fractions, not boiled

Substance | stoichiometry N [1] | stoichiometry N [2] | stoichiometry N [3] | stoichiometry N [4]
6xHis-YlfA 128–425 (domain or fragment) | 2 | 2 and 3 |  | 
6xHis-YlfB 131–405 (domain or fragment) |  |  | 2 | 2 and 3
